Results: paper PMC12618078

What was measured:
[1] = target: PTIP (UniProt Q6ZW49); assay: reciprocal co-IP, Western blot; details: reference: WT 53BP1 (before and 1 h after IR); sites T334
[2] = target: RIF1 (UniProt Q5UIP0); assay: reciprocal co-IP, Western blot; details: reference: WT 53BP1 (before and 1 h after IR); sites T334

- binding against the reference [1]: stronger
- binding against the reference [2]: stronger
Substance: 53BP1 (from UniProt Q12888) T334A 53BP1 (before and 1 h after IR)
